This is an account of results in patent publication US6420522 (VERTEX PHARMACEUTICALS, dated 2002).

Read-outs that look alike come from different tables or passages of the source. Starred links: 1 amine or outer side, 2 acyl side, 3 side chain; linkers in the order of their positions; H or OH if unused. Non-standard residues stand in square brackets, D forms with d. No end group written: not given here. *: point of attachment. Asp‑al = Asp with the carboxyl reduced to aldehyde (3-amino-4-oxobutanoic acid), O=C[C@H](CC(=O)[*:3])N[*:1]; benzoxazol‑2‑yl ketone = Asp carboxyl replaced by 2-benzoxazolyl ketone, c1ccc2oc(*)nc2c1; Pro(4R-allyloxy) = 4(R)-allyloxyproline, C=CCO[C@@H]1C[C@@H](C(=O)[*:2])N([*:1])C1; X3 = (2,6-dichlorophenylmethyloxy)methyl ketone, Clc1cccc(Cl)c1COC*; X1 = 7‑methoxybenzoxazol‑2‑yl ketone, COc1cccc2nc(*)oc12; X2 = 4‑methoxybenzoxazol‑2‑yl ketone, COc1cccc2oc(*)nc12; X4 = (2-chlorobenzyloxy)methyl ketone, Clc1ccccc1COC*; Pro(4-benzyloxy) = 4-benzyloxyproline; Pro(4-phenoxy) = 4-phenoxyproline; Hyp = O=C(O)[C@@H]1C[C@@H](O)CN1; Cbz = O=C(OCc1ccccc1)*

The target of assay [1] is interleukin-1β converting enzyme (ICE), as used in the enzyme assays (UniProt P29466). Nature of the assay: ICE enzyme inhibition, UV-visible substrate Suc-YVAD-pNA.
The target is the same in assay [2]. Nature of the assay: ICE enzyme inhibition, fluorescent substrate Ac-YVAD-AMC.
In assay [3] the target is T1, interleukin-1β converting enzyme (ICE) in human peripheral blood mononuclear cells (human, UniProt P29466 1-404, limits assumed).
T1 sequence (looked up): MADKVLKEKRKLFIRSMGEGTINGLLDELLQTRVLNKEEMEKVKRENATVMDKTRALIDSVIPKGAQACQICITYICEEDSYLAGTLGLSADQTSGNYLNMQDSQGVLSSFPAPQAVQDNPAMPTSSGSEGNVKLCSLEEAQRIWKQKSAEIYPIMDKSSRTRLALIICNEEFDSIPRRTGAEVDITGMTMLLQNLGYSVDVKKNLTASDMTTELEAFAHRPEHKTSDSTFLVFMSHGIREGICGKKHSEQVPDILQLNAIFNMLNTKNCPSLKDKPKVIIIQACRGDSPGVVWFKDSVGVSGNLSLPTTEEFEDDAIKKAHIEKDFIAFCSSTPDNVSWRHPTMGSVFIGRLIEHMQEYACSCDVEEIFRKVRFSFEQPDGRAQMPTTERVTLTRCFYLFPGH
Nature of the assay: cell-based or functional assay.

The target of assay [4] is T2, interleukin-1β converting enzyme (ICE), as used in the enzyme assays (UniProt P29466 120-297; P29466 317-404, limits assumed).
T2 construct: also called IL-1β Converting Enzyme
T2 sequence (looked up) 1: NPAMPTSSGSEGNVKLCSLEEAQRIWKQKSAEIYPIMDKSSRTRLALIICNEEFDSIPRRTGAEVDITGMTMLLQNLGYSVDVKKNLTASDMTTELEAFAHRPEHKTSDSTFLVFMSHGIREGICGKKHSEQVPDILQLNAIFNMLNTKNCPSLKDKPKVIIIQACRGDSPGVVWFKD
T2 sequence (looked up) 2: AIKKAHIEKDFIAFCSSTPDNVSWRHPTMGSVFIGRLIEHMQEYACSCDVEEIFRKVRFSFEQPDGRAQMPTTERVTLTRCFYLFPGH
Nature of the assay: ICE enzyme inhibition, UV-visible substrate Suc-YVAD-pNA. The method, then:
Synthesis of analogous substrates is described by L. A. Reiter (Int. J. Peptide Protein Res. 43, 87–96 (1994)). […] Buffer, ICE and DMSO (if inhibitor is present) are added to the wells in the order listed. The components are left to incubate at room temperature for 15 minutes starting at the time that all components are present in all wells. The microtiter plate reader is set to incubate at 37° C. After the 15 minute incubation, substrate is added directly to the wells and the reaction is monitored by following the release of the chromophore (pNA) at 405–603 nm at 37° C. for 20 minutes. A linear fit of the data is performed and the rate is calculated in mOD/min. DMSO is only present during experiments involving inhibitors, buffer is used to make up the volume to 100 µl in the other experiments.

Assay [5] has as its target T2, interleukin-1β converting enzyme (ICE), …. The experiment in a line: ICE enzyme inhibition, fluorescent substrate Ac-YVAD-AMC. The method, then: This assay is run essentially according to Thornberry et al. (Nature 356: 768–774 (1992)), using substrate 17 referenced in that article. […] The following components are mixed:
Buffer and ICE are added to the wells. The components are left to incubate at 37° C for 15 minutes in a temperature-controlled wellplate. […] A linear fit of the data for each well is performed and a rate is determined in fluorescence units per second.

Assay [6] has as its target T1, interleukin-1β converting enzyme (ICE) …. Nature of the assay: cell-based or functional assay. The source holds these as a separate data set.
Assay [7] has the same target. The experiment in a line: cell-based or functional assay. This is another data set of the same source.

Regarding “N-[2-(N-Acetyl-tyrosinyl-valinyl)-(S)-1,2,3,4-tetrahydroisoquinoline-3-carbonyl]-3-amino-oxobutanoic acid (peptide)”, the Ki (in general, a measure of affinity in units of concentration, obtained from inhibition or displacement) in assay [1] turned out to be 14 nM.
For the molecule “N-(N-Acetyl-tyrosinyl-valinyl-pipecolyl)-3-amino-4-oxobutanoic acid (peptide)”, the Ki in assay [2] worked out at 4.7 nM; in assay [1], 23 nM.
Turning to Ac-Val-Pro-Asp-X1 (not fully specified (residues 2, 3)), the “Cell IC50 (µM): inhibitor concentration at which 50% of mature IL-1β is detected in the supernatant” value in assay [3] is 4 µM. The same molecule returned a Ki in assay [1] of 175 nM.
In turn, Ac-YV[Pro(4R-allyloxy)][Asp‑al] (not fully specified (C-terminus), also called 85) [N-(N-Acetyl-tyrosinyl-valinyl-(4(R)-allyloxy prolinyl))-3(S)-amino-4-oxobutanoic acid] gave a Ki in assay [4] of 3.5 nM. The “Cell IC50 (µM): inhibitor concentration at which 50% of mature IL-1β is detected in the supernatant” value in assay [3] amounted to 9.8 µM.
Regarding Ac-YV[Pro(4-phenoxy)][Asp‑al] (not fully specified (C-terminus)) [N-(N-Acetyl-tyrosinyl-valinyl-(4-phenoxyprolinyl))-3-amino-4-oxobutanoic acid], the Ki in assay [4] was found to be 7.2 nM; in assay [5], 5.2 nM. Further, the “Cell IC50 (µM): inhibitor concentration at which 50% of mature IL-1β is detected in the supernatant” value in assay [6] was found to be 2.6 µM.
As for Ac-YVAD-X3 (also: Asp-derived residue (R,S), also called 84b), the Ki in assay [4] is 19 nM. Besides, the “Cell IC50 (µM): inhibitor concentration at which 50% of mature IL-1β is detected in the supernatant” value in assay [7] amounted to 0.5 µM.

B1: (3S) t-Butyl N-(N-acetyl-(S)-tyrosinyl-(S)-valinyl-(S)-alaninyl)-3-amino-4-(2-(4-methoxybenzoxazolyl))-4-oxobutanoate (peptide)
peptide: Ac-YVAD-X2
SMILES: COc1cccc2oc(C(=O)[C@H](CC(=O)O)NC(=O)[C@H](C)NC(=O)[C@@H](NC(=O)[C@H](Cc3ccc(O)cc3)NC(C)=O)C(C)C)nc12
notes: The printed name begins with 't-Butyl', but the compound was made by the method for the acid 69a and its printed formula C31H37N5O10 is that of the free acid; also called 69b
Regarding B1, in assay [4], the affinity, expressed as Ki, was 50 nM. Also, in assay [7], the “Cell IC50 (µM): inhibitor concentration at which 50% of mature IL-1β is detected in the supernatant” value came to 0.745 µM.

B2: N-Acetyl-(S)-tyrosinyl-(S)-valinyl-(S)-alaninyl-3(S)-amino-5-(2-chlorobenzyloxy)-4-oxo-pentanoic acid (peptide)
peptide: Ac-YVAD-X4
SMILES: CC(=O)N[C@@H](Cc1ccc(O)cc1)C(=O)N[C@H](C(=O)N[C@@H](C)C(=O)N[C@@H](CC(=O)O)C(=O)COCc1ccccc1Cl)C(C)C
notes: also called 89
Consider B2, for which, in assay [4], the affinity, expressed as Ki, was 18 nM.

B3: (3S) N-(N-Acetyl-(S)-tyrosinyl-(S)-valinyl-(S)-alaninyl)-3-amino-4-(2-(7-methoxybenzoxazolyl))-4-oxobutanoate (peptide)
peptide: Ac-YVAD-X1
SMILES: COc1cccc2nc(C(=O)[C@H](CC(=O)O)NC(=O)[C@H](C)NC(=O)[C@@H](NC(=O)[C@H](Cc3ccc(O)cc3)NC(C)=O)C(C)C)oc12
notes: also called 69a
Regarding B3, the Ki in assay [4] was 11 nM. Besides, the “Cell IC50 (µM): inhibitor concentration at which 50% of mature IL-1β is detected in the supernatant” value in assay [7] worked out at 0.735 µM.
As for Cbz-Val-Ala-Asp-X3 (also: Asp-derived residue (R,S)), the “Cell IC50 (µM): inhibitor concentration at which 50% of mature IL-1β is detected in the supernatant” value in assay [7] is 3.3 µM. The molecule further came in with a Ki in assay [1] of 100 nM.

B4: (3S) N-(N-Benzyloxycarbonyl-(S)-valinyl-(S)-alaninyl)-3-amino-4-(2-benzoxazolyl)-4-oxobutanoate (peptide)
peptide: Cbz-Val-Ala-Asp-{benzoxazol‑2‑yl ketone}
SMILES: CC(C)[C@H](NC(=O)OCc1ccccc1)C(=O)N[C@@H](C)C(=O)N[C@@H](CC(=O)O)C(=O)c1nc2ccccc2o1
On to B4, for which the “Cell IC50 (µM): inhibitor concentration at which 50% of mature IL-1β is detected in the supernatant” value in assay [7] worked out at 4.1 µM. This molecule also gave a Ki in assay [1] of 850 nM.
On to Ac-YV[Pro(4-benzyloxy)][Asp‑al] (not fully specified (C-terminus)) [N-[N-Acetyl-tyrosinyl-valinyl-(4-benzyloxy)prolinyl]-3-amino-4-oxobutanoic acid], for which the Ki was determined as 10 nM in assay [4] and 2 nM in assay [5].
Turning to Ac-YV[Hyp][Asp‑al] (not fully specified (C-terminus)) [N-[N-Acetyl-tyrosinyl-valinyl-(4-hydroxyprolinyl)]-3-amino-4-oxobutanoic acid], the Ki in assay [4] turned out to be 12 nM; in assay [5] it was 3.9 nM.
